For the test, the target named is acetylcholine receptor. Put plainly: SPR, receptor on CM5 chip, peptide 10 µM. (In general: Surface plasmon resonance follows binding to a sensor surface in real time, without labels.)

On to KKWVCR [6mer-1-112], for which the Binding affinity (RU) was found to be 148 RU.

RKVICR [6mer-1-111] gave a Binding affinity (RU) of 144 RU.

RKVRCK [6mer-1-116] showed a Binding affinity (RU) of 139 RU.

In the case of RKVQQK [6mer-1-94], the Binding affinity (RU) was 142 RU.

KRQRCK [6mer-1-472] displayed a Binding affinity (RU) of 142 RU.

Regarding KRVQQK [6mer-1-124], the Binding affinity (RU) was found to be 137 RU.

With KRLFSK [6mer-1-474], the Binding affinity (RU) was found to be 121 RU.

For the molecule KKSIYR [6mer-1-134], the Binding affinity (RU) is 128 RU.

The molecule KRRRQK [6mer-1-476] had a Binding affinity (RU) of 154 RU.

RRRYSR [6mer-1-120] yielded a Binding affinity (RU) of 124 RU.

In turn, RRLLLR [6mer-1-108] showed a Binding affinity (RU) of 139 RU.

Molecule KKVLSK [6mer-1-473] came in with a Binding affinity (RU) of 154 RU.

KRWICK [6mer-1-88] displayed a Binding affinity (RU) of 121 RU.

Molecule RKWISK [6mer-1-100] yielded a Binding affinity (RU) of 146 RU.

KRQLLK [6mer-1-110] gave a Binding affinity (RU) of 121 RU.

On to RRGQTK [6mer-1-84], for which the Binding affinity (RU) amounted to 142 RU.

Take RRWRLK [6mer-1-92]: the Binding affinity (RU) turned out to be 153 RU.

With KKWRQK [6mer-1-86], the Binding affinity (RU) stood at 142 RU.

KKWIQR [6mer-1-126] registered a Binding affinity (RU) of 148 RU.

The molecule RRRQSK [6mer-1-129] registered a Binding affinity (RU) of 121 RU.

KKVLYR [6mer-1-82] returned a Binding affinity (RU) of 123 RU.

For the molecule RRRYRR [6mer-1-102], the Binding affinity (RU) came out at 127 RU.

The molecule KKWVYR [6mer-1-470] displayed a Binding affinity (RU) of 148 RU.

KKQVYK [6mer-1-87] registered a Binding affinity (RU) of 139 RU.

Molecule RRSLTR [6mer-1-479] had a Binding affinity (RU) of 135 RU.

KKLIRK [6mer-1-122]: the Binding affinity (RU) turned out to be 139 RU.

For the molecule KKWRCK [6mer-1-471], the Binding affinity (RU) stood at 123 RU.

In turn, KKQFYK [6mer-1-480] gave a Binding affinity (RU) of 121 RU.

Molecule KKRYLR [6mer-1-109] returned a Binding affinity (RU) of 148 RU.

Molecule KRLQCR [6mer-1-98] came in with a Binding affinity (RU) of 154 RU.

Molecule KKWQTK [6mer-1-95] had a Binding affinity (RU) of 142 RU.

KKLIYR [6mer-1-469] returned a Binding affinity (RU) of 139 RU.

For the molecule KRVIYR [6mer-1-127], the Binding affinity (RU) was found to be 147 RU.

Molecule RRQVYR [6mer-1-132] yielded a Binding affinity (RU) of 153 RU.

KRQVSR [6mer-1-135] gave a Binding affinity (RU) of 123 RU.

In the case of KKQRSR [6mer-1-107], the Binding affinity (RU) was determined as 131 RU.

In turn, KRQQTK [6mer-1-477] registered a Binding affinity (RU) of 145 RU.

KRWIRR [6mer-1-93]: the Binding affinity (RU) stood at 136 RU.

RKQQCK [6mer-1-91]: the Binding affinity (RU) was 131 RU.

In the case of KRLQTR [6mer-1-119], the Binding affinity (RU) is 133 RU.

In the case of KRGFSK [6mer-1-104], the Binding affinity (RU) is 121 RU.

KRGIQR [6mer-1-131] displayed a Binding affinity (RU) of 142 RU.

KRRLCR [6mer-1-125] had a Binding affinity (RU) of 135 RU.

KKRVSK [6mer-1-78] gave a Binding affinity (RU) of 145 RU.

Molecule RKRICK [6mer-1-103] showed a Binding affinity (RU) of 122 RU.

RRGVQK [6mer-1-123] yielded a Binding affinity (RU) of 148 RU.

The molecule RKVVYR [6mer-1-99] showed a Binding affinity (RU) of 136 RU.

In turn, RRWQLR [6mer-1-81] yielded a Binding affinity (RU) of 148 RU.

For the molecule KRWLYR [6mer-1-101], the Binding affinity (RU) came to 142 RU.

For the molecule RKRQCK [6mer-1-85], the Binding affinity (RU) was 121 RU.

In turn, RKVRYK [6mer-1-478] displayed a Binding affinity (RU) of 139 RU.

With RKLQLR [6mer-1-118], the Binding affinity (RU) came to 127 RU.

KRRYTK [6mer-1-121]: the Binding affinity (RU) was 148 RU.

With RKLQTK [6mer-1-475], the Binding affinity (RU) turned out to be 148 RU.

In turn, KRGVQK [6mer-1-113] came in with a Binding affinity (RU) of 148 RU.

As for RKQRCK [6mer-1-89], the Binding affinity (RU) is 142 RU.

KKGISK [6mer-1-90] showed a Binding affinity (RU) of 125 RU.

RKQVLR [6mer-1-130]: the Binding affinity (RU) was 142 RU.

In the case of KRLFTR [6mer-1-117], the Binding affinity (RU) is 142 RU.

Consider KKVYLR [6mer-1-97], for which the Binding affinity (RU) came to 139 RU.

Consider KRGQLK [6mer-1-106], for which the Binding affinity (RU) stood at 149 RU.

Molecule RRQITK [6mer-1-114] showed a Binding affinity (RU) of 153 RU.

On to RKQFYR [6mer-1-128], for which the Binding affinity (RU) worked out at 126 RU.

Turning to RRSLSR [6mer-1-115], the Binding affinity (RU) amounted to 133 RU.

For KRVQQR [6mer-1-80], the Binding affinity (RU) was determined as 133 RU.

As for KKSISK [6mer-1-105], the Binding affinity (RU) was determined as 141 RU.

In turn, RRLYRR [6mer-1-468] came in with a Binding affinity (RU) of 153 RU.

In the case of RKRFLR [6mer-1-133], the Binding affinity (RU) turned out to be 154 RU.

Regarding KRLFCK [6mer-1-79], the Binding affinity (RU) amounted to 137 RU.

As to RRSFLR [6mer-1-83], the Binding affinity (RU) came to 146 RU.

KRGVRK [6mer-1-96] registered a Binding affinity (RU) of 125 RU.

These data come from US20250011363A1, “OPTIMIZED SHORTENED PEPTIDE THAT BINDS TO ACETYLCHOLINE RECEPTOR, AND USE THEREOF” (SKINMED CO., LTD., priority 2021, published 2025).
